Laboratory results published in paper PMC8226452, “PESIN Conjugates for Multimodal Imaging: Can Multimerization Compensate Charge Influences on Cell Binding Properties? A Case Study” (Pharmaceuticals, 2021).
Where two headings read alike, the source gives them in different places.

Experiments:
[1] = logD by partition between n-octanol and aqueous solution at pH 7.4; format: physicochemical
Procedure: For the ^68Ga-labeled agents [^68Ga]Ga-2, [^68Ga]Ga-3, [^68Ga]Ga-5, and [^68Ga]Ga-6, and the dyes NIR-820 and 1, the logD values were determined by partition experiments between n-octanol and aqueous solution at pH 7.4.
Determination of logD. The n-octanol/water partition coefficient (logD) of [^68Ga]Ga-2, [^68Ga]Ga-3, [^68Ga]Ga-5, and [^68Ga]Ga-6 was determined as previously described. In brief, 5 µL of the respective radiolabeled product solutions were added to a mixture of n-octanol (800 µL) and phosphate buffered solution (0.05 M, pH 7.4, 795 µL) and vigorously shaken for 5 min. After separation of the phases by centrifugation, 100 µL of each phase was taken and measured in a γ-counter.

[2] = biological target: T1, gastrin-releasing peptide receptor (GRPR) (Homo sapiens, UniProt P30550); experiment: Competitive displacement assay with [125I]I-Tyr4-bombesin on stably GRPR-transfected HEK-293 cells; conditions: 10^5 GRPR-transfected HEK-293 cells per well; radioligand [125I]I-Tyr4-bombesin; 11 competitor concentrations (0.25-500 nM for 5 and 6, 0.1-250 nM for BBN); 1 h at ambient temperature; γ-counting; nonlinear regression; at least three experiments, each in triplicate; read-out: IC50 (GRPR binding affinity)
T1 construct: host or cells: HEK-293 (human embryonic kidney) cells, stably GRPR-transfected
Procedure: Human embryonic kidney 293 cells, stably expressing the GRP receptor (GRPR HEK-293 cells), were obtained from Dr. Martin Béhé, Paul Scherrer Institute, Villingen, Switzerland. Cells were cultured using Dulbecco’s modified Eagle’s medium (DMEM, high glucose, GlutaMax-I, 500 mL), geneticin (G418 Sulfate, 50 mg/mL), Opti-MEM I (GlutaMAX I), RPMI 1640 medium and PenStrep from Gibco, fetal calf serum (FCS) from Bio&sell (Feucht, Germany) and Dulbecco’s phosphate buffered saline (PBS), 0.25% Trypsin and 0.02% EDTA solution in PBS from Sigma-Aldrich (Darmstadt, Germany).
Competitive Receptor Binding Assay. The assays were carried out on stably GRPR-transfected HEK-293 cells as described previously [26, 27]. In brief, 50 µL of a cell suspension containing 10^5 cells was seeded in each well of a Millipore 96-well filter plate. […] After one hour of incubation at ambient temperature, the suspension was filtered and the cells washed thrice with cold PBS. The filter was punched out and measured by γ-counting. […] IC50 values were obtained from at least three different experiments, each performed in triplicate.

[3] = not given; remark: listed apart in the source
[4] = shake-flask, n-octanol (800 µL)/phosphate buffered solution (0.05 M, pH 7.4, 795 µL), 5 µL of 68Ga-labeled product solution, shaken 5 min, centrifugation, 100 µL of each phase measured in γ-counter, read-out: logD (n-octanol/water partition coefficient)

T1 sequence (P30550 whole entry, species assumed): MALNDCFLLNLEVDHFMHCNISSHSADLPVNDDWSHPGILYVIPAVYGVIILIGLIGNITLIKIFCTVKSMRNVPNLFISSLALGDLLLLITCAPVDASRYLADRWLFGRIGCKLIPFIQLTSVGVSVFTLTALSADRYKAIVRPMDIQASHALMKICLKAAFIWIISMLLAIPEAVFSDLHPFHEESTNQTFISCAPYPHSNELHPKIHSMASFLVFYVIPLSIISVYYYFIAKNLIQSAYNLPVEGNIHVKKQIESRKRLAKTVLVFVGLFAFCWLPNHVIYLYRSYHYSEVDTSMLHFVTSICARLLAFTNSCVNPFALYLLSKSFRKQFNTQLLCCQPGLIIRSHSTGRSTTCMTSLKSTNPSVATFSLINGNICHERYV

SMILES: CC1(C)C(/C=C/C2=C(c3ccccc3)C(=C/C=C3/N(CCCCS(=O)(=O)O)c4ccc(C(=O)NCCCC[C@H](NC(=O)CC[C@H](C(=O)O)N5CCN(CC(=O)O)CCN(CC(=O)O)CC5)C(=O)N[C@@H](CS)C(N)=O)cc4C3(C)C)/CCC2)=[N+](CCCCS(=O)(=O)[O-])c2ccc(C(=O)NCCCC[C@H](NC(=O)CC[C@H](C(=O)O)N3CCN(CC(=O)O)CCN(CC(=O)O)CC3)C(=O)N[C@@H](CS)C(N)=O)cc21 [[^68Ga]Ga-3, metal not drawn]
- logD ([1]; pH 7.4): -2.9 ± 0.1

SMILES: CSCC[C@H](NC(=O)[C@H](CC(C)C)NC(=O)[C@H](Cc1c[nH]cn1)NC(=O)CNC(=O)[C@@H](NC(=O)[C@H](C)NC(=O)[C@H](Cc1c[nH]c2ccccc12)NC(=O)[C@H](CCC(N)=O)NC(=O)CCOCCOCCOCCOCCNC(=O)CO/N=C/c1ccc(C(=O)NCCCN(CCCNC(=O)c2ccc(/C=N/OCC(=O)NCCOCCOCCOCCOCCC(=O)N[C@@H](CCC(N)=O)C(=O)N[C@@H](Cc3c[nH]c4ccccc34)C(=O)N[C@@H](C)C(=O)N[C@H](C(=O)NCC(=O)N[C@@H](Cc3c[nH]cn3)C(=O)N[C@@H](CC(C)C)C(=O)N[C@@H](CCSC)C(N)=O)C(C)C)cc2)CC(=O)N[C@@H](CSC2CC(=O)N(CCN3C(=O)CC(SC[C@H](NC(=O)[C@H](CCCCNC(=O)c4ccc5c(c4)C(C)(C)C(/C=C/C4=C(c6ccccc6)C(=C/C=C6/N(CCCCS(=O)(=O)O)c7ccc(C(=O)NCCCC[C@H](NC(=O)CC[C@H](C(=O)O)N8CCN(CC(=O)O)CCN(CC(=O)O)CC8)C(=O)N[C@@H](CSC8CC(=O)N(CCN9C(=O)CC(SC[C@H](NC(=O)CN(CCCNC(=O)c%10ccc(/C=N/OCC(=O)NCCOCCOCCOCCOCCC(=O)N[C@@H](CCC(N)=O)C(=O)N[C@@H](Cc%11c[nH]c%12ccccc%11%12)C(=O)N[C@@H](C)C(=O)N[C@H](C(=O)NCC(=O)N[C@@H](Cc%11c[nH]cn%11)C(=O)N[C@@H](CC(C)C)C(=O)N[C@@H](CCSC)C(N)=O)C(C)C)cc%10)CCCNC(=O)c%10ccc(/C=N/OCC(=O)NCCOCCOCCOCCOCCC(=O)N[C@@H](CCC(N)=O)C(=O)N[C@@H](Cc%11c[nH]c%12ccccc%11%12)C(=O)N[C@@H](C)C(=O)N[C@H](C(=O)NCC(=O)N[C@@H](Cc%11c[nH]cn%11)C(=O)N[C@@H](CC(C)C)C(=O)N[C@@H](CCSC)C(N)=O)C(C)C)cc%10)C(=O)NCCOCCOCC(=O)O)C9=O)C8=O)C(N)=O)cc7C6(C)C)/CCC4)=[N+]5CCCCS(=O)(=O)[O-])NC(=O)CC[C@H](C(=O)O)N4CCN(CC(=O)O)CCN(CC(=O)O)CC4)C(N)=O)C3=O)C2=O)C(=O)NCCOCCOCC(=O)O)cc1)C(C)C)C(N)=O (stereo partly shown) [[^68Ga]Ga-6, metal not drawn]
- logD [1, 4]: -1.8 ± 0.1
- Stokes Shift: 20 nm

SMILES: CSCC[C@H](NC(=O)[C@H](CC(C)C)NC(=O)[C@H](Cc1c[nH]cn1)NC(=O)CNC(=O)[C@@H](NC(=O)[C@H](C)NC(=O)[C@H](Cc1c[nH]c2ccccc12)NC(=O)[C@H](CCC(N)=O)NC(=O)CCOCCOCCOCCOCCNC(=O)CO/N=C/c1ccc(C(=O)NCCCN(CCCNC(=O)c2ccc(/C=N/OCC(=O)NCCOCCOCCOCCOCCC(=O)N[C@@H](CCC(N)=O)C(=O)N[C@@H](Cc3c[nH]c4ccccc34)C(=O)N[C@@H](C)C(=O)N[C@H](C(=O)NCC(=O)N[C@@H](Cc3c[nH]cn3)C(=O)N[C@@H](CC(C)C)C(=O)N[C@@H](CCSC)C(N)=O)C(C)C)cc2)CC(=O)N[C@@H](CSC2CC(=O)N(CCN3C(=O)CC(SC[C@H](NC(=O)[C@H](CCCCNC(=O)c4ccc5c(c4)C(C)(C)C(/C=C/C4=C(c6ccccc6)C(=C/C=C6/N(CCCCS(=O)(=O)O)c7ccc(C(=O)O)cc7C6(C)C)/CCC4)=[N+]5CCCCS(=O)(=O)[O-])NC(=O)CC[C@H](C(=O)O)N4CCN(CC(=O)O)CCN(CC(=O)O)CC4)C(N)=O)C3=O)C2=O)C(=O)NCCOCCOCC(=O)O)cc1)C(C)C)C(N)=O (stereo partly shown) [Compound 5]
- logD (n-octanol/water partition coefficient) ([1]; shake-flask, n-octanol (800 µL)/phosphate buffered solution (0.05 M, pH 7.4, 795 µL), 5 µL of 68Ga-labeled product solution, shaken 5 min, centrifugation, 100 µL of each phase measured in γ-counter): −2.2 ± 0.1
- IC50 [2]: 59.1 ± 1.49 nM

SMILES: CC1(C)C(/C=C/C2=C(Cl)C(=C/C=C3\N(CCCCS(=O)(=O)[O-])c4ccc(C(=O)O)cc4C3(C)C)/CCC2)=[N+](CCCCS(=O)(=O)[O-])c2ccc(C(=O)O)cc21.[H+] [NIR-820, reference compound]
- logD (n-octanol/water partition coefficient) ([1]; unlabeled dyes, comparable n-octanol/water partition experiments at pH 7.4, HPLC analysis of the phases instead of γ-counting): −3.3 ± 0.7

SMILES: CSCC[C@H](NC(=O)[C@H](CC(C)C)NC(=O)[C@H](Cc1c[nH]cn1)NC(=O)CNC(=O)[C@@H](NC(=O)[C@H](C)NC(=O)[C@H](Cc1c[nH]c2ccccc12)NC(=O)[C@H](CCC(N)=O)NC(=O)CCOCCOCCOCCOCCNC(=O)CO/N=C/c1ccc(C(=O)NCCCN(CCCNC(=O)c2ccc(/C=N/OCC(=O)NCCOCCOCCOCCOCCC(=O)N[C@@H](CCC(N)=O)C(=O)N[C@@H](Cc3c[nH]c4ccccc34)C(=O)N[C@@H](C)C(=O)N[C@H](C(=O)NCC(=O)N[C@@H](Cc3c[nH]cn3)C(=O)N[C@@H](CC(C)C)C(=O)N[C@@H](CCSC)C(N)=O)C(C)C)cc2)CC(=O)N[C@@H](CSC2CC(=O)N(CCN3C(=O)CC(SC[C@H](NC(=O)[C@H](CCCCNC(=O)c4ccc5c(c4)C(C)(C)C(/C=C/C4=C(c6ccccc6)C(=C/C=C6/N(CCCCS(=O)(=O)O)c7ccc(C(=O)O)cc7C6(C)C)/CCC4)=[N+]5CCCCS(=O)(=O)[O-])NC(=O)CC[C@H](C(=O)O)N4CCN(CC(=O)O)CCN(CC(=O)O)CC4)C(N)=O)C3=O)C2=O)C(=O)NCCOCCOCC(=O)O)cc1)C(C)C)C(N)=O (stereo partly shown) [[^68Ga]Ga-5, metal not drawn]
- logD [1, 4]: -2.2 ± 0.1

SMILES: CSCC[C@H](NC(=O)[C@H](CC(C)C)NC(=O)[C@H](Cc1c[nH]cn1)NC(=O)CNC(=O)[C@@H](NC(=O)[C@H](C)NC(=O)[C@H](Cc1c[nH]c2ccccc12)NC(=O)[C@H](CCC(N)=O)NC(=O)CCOCCOCCOCCOCCNC(=O)CO/N=C/c1ccc(C(=O)NCCCN(CCCNC(=O)c2ccc(/C=N/OCC(=O)NCCOCCOCCOCCOCCC(=O)N[C@@H](CCC(N)=O)C(=O)N[C@@H](Cc3c[nH]c4ccccc34)C(=O)N[C@@H](C)C(=O)N[C@H](C(=O)NCC(=O)N[C@@H](Cc3c[nH]cn3)C(=O)N[C@@H](CC(C)C)C(=O)N[C@@H](CCSC)C(N)=O)C(C)C)cc2)CC(=O)N[C@@H](CSC2CC(=O)N(CCN3C(=O)CC(SC[C@H](NC(=O)[C@H](CCCCNC(=O)c4ccc5c(c4)C(C)(C)C(/C=C/C4=C(c6ccccc6)C(=C/C=C6/N(CCCCS(=O)(=O)O)c7ccc(C(=O)O)cc7C6(C)C)/CCC4)=[N+]5CCCCS(=O)(=O)[O-])NC(=O)CC[C@H](C(=O)O)N4CCN(CC(=O)O)CCN(CC(=O)O)CC4)C(N)=O)C3=O)C2=O)C(=O)NCCOCCOCC(=O)O)cc1)C(C)C)C(N)=O (stereo partly shown)
- Stokes Shift: 20 nm
- λmax(em) [3]: 790 nm

SMILES: CC1(C)C(/C=C/C2=C(c3ccccc3)C(=C/C=C3/N(CCCCS(=O)(=O)O)c4ccc(C(=O)NCCCC[C@H](NC(=O)CC[C@H](C(=O)O)N5CCN(CC(=O)O)CCN(CC(=O)O)CC5)C(=O)N[C@@H](CS)C(N)=O)cc4C3(C)C)/CCC2)=[N+](CCCCS(=O)(=O)[O-])c2ccc(C(=O)O)cc21 [[^68Ga]Ga-2, metal not drawn]
- logD (n-octanol/water partition coefficient) ([1]; pH 7.4): −2.6 ± 0.1
